# According to the RNAGym collection of RNA variant scans (doi:10.7554/elife.80360):
# B1: Twister Ribozyme (parent)
# chain: AACACUGCCAAUGCCGGUCCCAAGCCCGGAUAAAAGUGGAGGGGGCGG
# Variants of: B1
# Experiment: self-cleavage, relative activity (ratio to wild type); higher = more cleavage; co-transcriptional
row,Variant,self-cleavage
1,C19G U37G,0.0722
2,C19U,1.05
3,C19U A22G,0.0788
4,C19U A23G,0.219
5,C19U A23U,0.203
6,C19U A30C,0.591
7,C19U A30U,0.82
8,C19U A32C,1.05
9,C19U A32G,0.855
10,C19U A33C,0.795
11,C19U A33U,0.86
12,C19U A34C,0.083
13,C19U A34G,0.601
14,C19U A35C,1.05
15,C19U A40C,0.152
16,C19U A40U,0.133
17,C19U C20A,0.107
18,C19U C20G,0.0718
19,C19U C20U,0.327
20,C19U C21U,0.0767
21,C19U C25A,0.113
22,C19U C26G,0.0861
23,C19U C26U,0.0803
24,C19U C27U,0.802

row,Variant,self-cleavage
1,C19U C46A,0.853
2,C19U C46G,0.929
3,C19U C46U,0.907
4,C19U G24C,0.126
5,C19U G28A,0.758
6,C19U G28U,0.822
7,C19U G29C,0.438
8,C19U G29U,0.836
9,C19U G36A,0.167
10,C19U G36U,0.127
11,C19U G41A,0.134
12,C19U G41C,0.104
13,C19U G42A,0.17
14,C19U G42C,0.221
15,C19U G43C,0.286
16,C19U G45U,0.563
17,C19U G47A,0.763
18,C19U G47U,0.39
19,C19U G48C,1.04
20,C19U G48U,0.91
21,C19U U37A,0.406
22,C19U U37G,0.621
23,C20A,0.16
24,C20A A22C,0.126

row,Variant,self-cleavage
1,C20A A23G,0.0659
2,C20A A23U,0.0802
3,C20A A30G,0.114
4,C20A A32C,0.111
5,C20A A32G,0.145
6,C20A A33U,0.0982
7,C20A A34G,0.104
8,C20A A34U,0.0698
9,C20A A35G,0.0546
10,C20A A40C,0.129
11,C20A A40G,0.0838
12,C20A A40U,0.106
13,C20A C25G,0.0839
14,C20A C25U,0.112
15,C20A C26G,0.105
16,C20A C46G,0.0871
17,C20A G29A,0.138
18,C20A G36C,0.0494
19,C20A G36U,0.0906
20,C20A G38A,0.0955
21,C20A G39A,0.114
22,C20A G41A,0.0878
23,C20A G42C,0.78
24,C20A G43A,0.118

row,Variant,self-cleavage
1,C20A G43C,0.0847
2,C20A G43U,0.105
3,C20A G44C,0.146
4,C20A G45C,0.161
5,C20A G47A,0.0961
6,C20A G47C,0.108
7,C20A G48A,0.104
8,C20A G48U,0.142
9,C20A U31A,0.14
10,C20G,0.169
11,C20G A22C,0.147
12,C20G A22U,0.122
13,C20G A23C,0.118
14,C20G A23U,0.121
15,C20G A30G,0.233
16,C20G A34G,0.0924
17,C20G A34U,0.074
18,C20G A35G,0.094
19,C20G A35U,0.182
20,C20G A40C,0.109
21,C20G A40U,0.0992
22,C20G C21U,0.115
23,C20G C25G,0.0818
24,C20G C26A,0.0588

row,Variant,self-cleavage
1,C20G C26G,0.093
2,C20G C27A,0.102
3,C20G C27G,0.0793
4,C20G C27U,0.0791
5,C20G C46A,0.12
6,C20G C46U,0.119
7,C20G G28U,0.233
8,C20G G29C,0.0469
9,C20G G36C,0.168
10,C20G G36U,0.0382
11,C20G G38A,0.0626
12,C20G G38C,0.108
13,C20G G38U,0.0717
14,C20G G39A,0.106
15,C20G G39C,0.0945
16,C20G G39U,0.0983
17,C20G G41U,0.0931
18,C20G G43C,0.101
19,C20G G43U,0.0978
20,C20G G44A,0.18
21,C20G G44U,0.0685
22,C20G G45A,0.102
23,C20G G45U,0.0778
24,C20G G47A,0.111

row,Variant,self-cleavage
1,C20G G47C,0.133
2,C20G G47U,0.131
3,C20G G48C,0.157
4,C20G U31A,0.103
5,C20G U31C,0.0873
6,C20G U31G,0.146
7,C20G U37A,0.0911
8,C20G U37C,0.0961
9,C20U,1.01
10,C20U A22C,1.01
11,C20U A23C,0.0767
12,C20U A23G,0.121
13,C20U A32C,0.758
14,C20U A32G,0.82
15,C20U A32U,0.887
16,C20U A33U,0.778
17,C20U A34G,0.373
18,C20U A34U,0.404
19,C20U A35G,0.664
20,C20U A40C,0.0976
21,C20U C21A,0.115
22,C20U C21G,0.0649
23,C20U C21U,0.119
24,C20U C25A,0.078

row,Variant,self-cleavage
1,C20U C26A,0.138
2,C20U C26U,0.128
3,C20U C46A,0.784
4,C20U C46G,0.815
5,C20U C46U,0.969
6,C20U G24C,0.0962
7,C20U G24U,0.0768
8,C20U G28U,0.906
9,C20U G29A,0.81
10,C20U G36C,0.135
11,C20U G36U,0.0929
12,C20U G38U,0.742
13,C20U G39C,0.0926
14,C20U G39U,0.15
15,C20U G41C,0.133
16,C20U G42C,0.654
17,C20U G43C,0.125
18,C20U G45A,0.838
19,C20U G45C,0.425
20,C20U G47A,0.859
21,C20U G48C,1.04
22,C20U U31A,0.68
23,C20U U37G,0.702
24,C21A A22C,0.101

row,Variant,self-cleavage
1,C21A A22G,0.101
2,C21A A23C,0.109
3,C21A A23G,0.0801
4,C21A A30C,0.079
5,C21A A30U,0.152
6,C21A A32C,0.169
7,C21A A32U,0.152
8,C21A A33C,0.112
9,C21A A33G,0.0711
10,C21A A33U,0.102
11,C21A A34U,0.102
12,C21A A35U,0.104
13,C21A A40G,0.0639
14,C21A C25A,0.101
15,C21A C25G,0.0507
16,C21A C25U,0.0609
17,C21A C26G,0.0786
18,C21A G24U,0.0879
19,C21A G28A,0.0792
20,C21A G29A,0.132
21,C21A G29C,0.0813
22,C21A G36A,0.0703
23,C21A G38A,0.109
24,C21A G38U,0.0847

row,Variant,self-cleavage
1,C21A G39C,0.116
2,C21A G41C,0.457
3,C21A G41U,0.678
4,C21A G42A,0.0769
5,C21A G42C,0.15
6,C21A G42U,0.0873
7,C21A G43A,0.0637
8,C21A G43C,0.0785
9,C21A G43U,0.0849
10,C21A G44A,0.113
11,C21A G44U,0.108
12,C21A G45A,0.114
13,C21A G45C,0.109
14,C21A G45U,0.121
15,C21A G47A,0.135
16,C21A G48C,0.171
17,C21A U31A,0.0618
18,C21A U31C,0.153
19,C21A U31G,0.119
20,C21A U37A,0.105
21,C21G A22C,0.0386
22,C21G A22G,0.135
23,C21G A22U,0.118
24,C21G A23C,0.0558

row,Variant,self-cleavage
1,C21G A23G,0.11
2,C21G A23U,0.032
3,C21G A30C,0.0405
4,C21G A30G,0.0493
5,C21G A32U,0.196
6,C21G A33U,0.0662
7,C21G A34C,0.0532
8,C21G A35C,0.0454
9,C21G A35G,0.0519
10,C21G A35U,0.0529
11,C21G A40U,0.129
12,C21G C25G,0.0701
13,C21G C25U,0.0625
14,C21G C26A,0.0789
15,C21G C26U,0.0515
16,C21G C27G,0.138
17,C21G C27U,0.0651
18,C21G C46A,0.115
19,C21G C46G,0.113
20,C21G G24A,0.0681
21,C21G G24C,0.109
22,C21G G24U,0.0976
23,C21G G29A,0.0338
24,C21G G36C,0.0148

row,Variant,self-cleavage
1,C21G G38A,0.11
2,C21G G39U,0.0469
3,C21G G41A,0.159
4,C21G G42A,0.0891
5,C21G G42C,0.13
6,C21G G43A,0.0243
7,C21G G43U,0.0954
8,C21G G47C,0.0639
9,C21G G48A,0.146
10,C21G U31G,0.0712
11,C21G U37G,0.083
12,C21U A22C,0.0923
13,C21U A22G,0.0633
14,C21U A23C,0.0826
15,C21U A23G,0.0801
16,C21U A23U,0.0638
17,C21U A30G,0.097
18,C21U A32G,0.0636
19,C21U A33G,0.146
20,C21U A34C,0.0844
21,C21U A35C,0.154
22,C21U A35G,0.108
23,C21U A40C,0.109
24,C21U A40G,0.0774

row,Variant,self-cleavage
1,C21U A40U,0.0831
2,C21U C25A,0.061
3,C21U C25G,0.0992
4,C21U C26A,0.0796
5,C21U C27G,0.0722
6,C21U C46A,0.107
7,C21U C46G,0.135
8,C21U G24C,0.0925
9,C21U G24U,0.106
10,C21U G28U,0.102
11,C21U G29U,0.0831
12,C21U G36U,0.0467
13,C21U G38A,0.0657
14,C21U G38C,0.0755
15,C21U G39C,0.114
16,C21U G39U,0.0656
17,C21U G41A,0.641
18,C21U G41C,0.434
19,C21U G41U,0.136
20,C21U G42C,0.118
21,C21U G43U,0.106
22,C21U G44U,0.0882
23,C21U G45U,0.118
24,C21U G47U,0.109

row,Variant,self-cleavage
1,C21U U31G,0.115
2,C21U U37A,0.0811
3,A22C,1.02
4,A22C A23C,0.148
5,A22C A23G,0.341
6,A22C A30U,1
7,A22C A33C,0.955
8,A22C A33U,0.983
9,A22C A35U,0.962
10,A22C A40G,0.128
11,A22C C25A,0.12
12,A22C C25G,0.222
13,A22C C25U,0.948
14,A22C C26A,0.46
15,A22C C27U,0.901
16,A22C C46A,1.02
17,A22C C46G,0.869
18,A22C C46U,0.832
19,A22C G28A,0.862
20,A22C G28C,0.955
21,A22C G28U,0.937
22,A22C G29C,0.929
23,A22C G36U,0.204
24,A22C G38A,0.894

row,Variant,self-cleavage
1,A22C G38C,0.976
2,A22C G38U,0.782
3,A22C G39C,0.161
4,A22C G39U,0.111
5,A22C G41A,0.326
6,A22C G41U,0.366
7,A22C G42A,0.215
8,A22C G42C,0.237
9,A22C G43U,0.273
10,A22C G44A,0.914
11,A22C G45A,0.927
12,A22C G47A,0.909
13,A22C G47U,0.917
14,A22C U31G,0.987
15,A22C U37C,0.624
16,A22G,0.368
17,A22G A23G,0.0844
18,A22G A30C,0.111
19,A22G A32C,0.35
20,A22G A32U,0.278
21,A22G A33G,0.255
22,A22G A33U,0.237
